Experimental data as given in patent publication EP3196312B1, “EFFICIENT CONVERSION OF METHYLGLYOXAL INTO HYDROXYACETONE USING NOVEL ENZYMES AND APPLI CATIONS THEREOF” (Metabolic Explorer, priority 2016, dated 2017).

Assays:
[1] = system: CC(=O)C=O; test: Methylglyoxal reductase kinetic parameters of purified enzyme (NAD(P)H consumption at 340 nm); format: biochemical, Escherichia coli; details: other: substrate methylglyoxal 0.1-40 mM, cofactor NADPH, pH 7.5
Description: Except for the strain 18, the proteins were purified from the crude cell-extract by affinity on a Profinity column (BIORAD, Bio-Scale Mini Profinity exact cartridge 5 ml) according to the protocol recommended by the manufacturer. The crude extract was loaded on a 5 ml Profinity exact cartridge equilibrated with 100 mM potassium phosphate pH 7.6. The column was washed with 10 column volumes of the same buffer and incubated 30min with 100 mM potassium phosphate pH 7.6, 100 mM fluoride at room temperature. The protein was eluted from the column with 2 column volumes of 100 mM potassium phosphate pH 7.6. The tag remained tightly bound to the resin and the purified protein was released. The fractions containing the protein were pooled, concentrated and loaded on a gel filtration column (Superdex 200 10/300 GL column, GE Healthcare) equilibrated with different storage buffers (Table 3). Protein concentration was measured using the Bradford protein assay.
(§1) Methylglyoxal reductase activity (MGR) was determined by measuring the consumption of NAD(P)H at 340 nm on a spectrophotometer at 30°C (λ340 = 6290 M^-1 cm^-1). The reaction mixture (1mL) containing assay buffer and purified enzyme was incubated for 5 min at 30°C. Then, 0.1-40 mM methylglyoxal was added to start the reaction. One unit of enzyme activity was defined as the amount of enzyme catalyzing the decrease of 1µmol of NAD(P)H per min. Kinetic parameters were determined with Sigmaplot.

[2] = system: CC(=O)C=O; test: as above; format: biochemical, Escherichia coli; details: other: substrate methylglyoxal 0.1-40 mM, cofactor NADH, 100mM MES-KOH (pH6.5) 0.1mM FeSO4 30mM ammonium sulfate, 30°C, pH 6.5
Description: For strain 14, the purification protocol was previously described in patent application WO 2015/173247. Table 3: Protein storage buffer
as §1

“Escherichia coli YdjG variant YdjG*(D232E), SEQ ID NO: 101 (Escherichia coli K-12; D232E)” showed a Km ([1]; 20mM Hepes (pH7.5), 30°C) of 3.25 mM and a kcat/Km ([1]; 20mM Hepes (pH7.5), 30°C) of 0.01 mM⁻¹ s⁻¹.
For “Escherichia coli YqhD variant YqhD*(G149E), SEQ ID NO: 9 (Escherichia coli K-12; G149E)”, the Km ([1]; 20mM Hepes (pH7.5) 0.1mM ZnSO4, 30°C) was 2.92 mM.
For “Escherichia coli GldA (glycerol dehydrogenase) variant GldA*(A160T), SEQ ID NO: 17 (Escherichia coli K-12; A160T)”, the Km [2] was 3.17 mM and the kcat/Km [2] was 7.8 mM⁻¹ s⁻¹.
